In patent publication US20240207462A1 (ABDERA THERAPEUTICS, published 2024):

Target: T1, human DLL3.FLAG (Adipogen #AG-40B-0151, amino acid 27-466) (human, UniProt Q9NYJ7 27-466)
T1 construct: range 27-466; The ELISA used human DLL3.FLAG or human DLL3.HIS (abcam #ab255797, amino acid 27-492); not shown: FLAG tag
T1 sequence (looked up): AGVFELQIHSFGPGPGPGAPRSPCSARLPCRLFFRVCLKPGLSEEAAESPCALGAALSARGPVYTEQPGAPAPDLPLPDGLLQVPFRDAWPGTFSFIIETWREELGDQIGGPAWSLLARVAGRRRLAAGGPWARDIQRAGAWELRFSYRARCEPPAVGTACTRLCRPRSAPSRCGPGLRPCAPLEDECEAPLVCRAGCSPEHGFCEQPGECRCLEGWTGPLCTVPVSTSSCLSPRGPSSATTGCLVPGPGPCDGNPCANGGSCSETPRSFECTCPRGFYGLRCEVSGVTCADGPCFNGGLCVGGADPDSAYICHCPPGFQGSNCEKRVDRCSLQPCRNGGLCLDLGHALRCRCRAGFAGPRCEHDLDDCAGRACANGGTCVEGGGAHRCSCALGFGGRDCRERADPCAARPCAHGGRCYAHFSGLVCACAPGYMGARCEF
Assay: ELISA, plate coated with hDLL3-Flag, goat anti-human IgG Fc-HRP, TMB, A450

B1: Rovalpituzumab (Creative Biolabs #TAB-216CL) (antibody, V domains shown)
VH: QVQLVQSGAEVKKPGASVKVSCKASGYTFTNYGMNWVRQAPGQGLEWMGWINTYTGEPTYADDFKGRVTMTTDTSTSTAYMELRSLRSDDTAVYYCARIGDSSPSDYWGQGTLVTVSS
VL: EIVMTQSPATLSVSPGERATLSCKASQSVSNDVVWYQQKPGQAPRLLIYYASNRYTGIPARFSGSGSGTEFTLTISSLQSEDFAVYYCQQDYTSPWTFGQGTKLEIK
For B1, the “EC50 (read off the curve)” value was roughly 0.08 nM.
